Experimental data published in paper PMC6555819, “Comprehensive study of nuclear receptor DNA binding provides a revised framework for understanding receptor specificity”.

Key:
[1] = target: RARg:RXRa (Homo sapiens, UniProt P13631;P19793 full;full); test: no ligand; PBM; 270 nM : 90 nM RXRa; PBS pH 7.4, 2% milk, 0.02% Triton X-100, 1 mM DTT, BSA, 0.4 mg/ml salmon testes DNA; details: tags: His kept;His cleaved; copies: 1;1; label: surface-attached array probe
How it was run: (§1)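 Each nuclear receptor dimer, without ligand, was incubated for 1 h on custom Agilent 4×180K protein-binding microarrays. Binding was detected with antibodies against each partner (one per run), and scanned fluorescence was regression-normalized. The binding z-scores are referenced to random human genomic background probes.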

[2] = target: PXR:RXRa (Homo sapiens, UniProt O75469;P19793 full;full); test: as above; details: tags: His kept;His cleaved; copies: 1;1; label: surface-attached array probe
PXR:RXRa, sequence (O75469 whole entry, chain 1 of 2): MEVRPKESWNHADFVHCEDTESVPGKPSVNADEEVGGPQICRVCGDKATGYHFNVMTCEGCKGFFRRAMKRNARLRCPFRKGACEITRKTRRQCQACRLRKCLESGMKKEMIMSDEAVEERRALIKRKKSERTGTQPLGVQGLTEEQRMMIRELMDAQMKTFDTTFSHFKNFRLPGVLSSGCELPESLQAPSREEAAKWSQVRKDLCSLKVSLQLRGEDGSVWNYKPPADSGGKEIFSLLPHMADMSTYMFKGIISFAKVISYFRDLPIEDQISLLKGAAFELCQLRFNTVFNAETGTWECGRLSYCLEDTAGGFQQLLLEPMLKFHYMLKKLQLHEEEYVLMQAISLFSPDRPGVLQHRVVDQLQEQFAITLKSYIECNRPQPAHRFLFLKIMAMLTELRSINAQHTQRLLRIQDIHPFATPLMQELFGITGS
PXR:RXRa, sequence (P19793 whole entry, chain 2 of 2): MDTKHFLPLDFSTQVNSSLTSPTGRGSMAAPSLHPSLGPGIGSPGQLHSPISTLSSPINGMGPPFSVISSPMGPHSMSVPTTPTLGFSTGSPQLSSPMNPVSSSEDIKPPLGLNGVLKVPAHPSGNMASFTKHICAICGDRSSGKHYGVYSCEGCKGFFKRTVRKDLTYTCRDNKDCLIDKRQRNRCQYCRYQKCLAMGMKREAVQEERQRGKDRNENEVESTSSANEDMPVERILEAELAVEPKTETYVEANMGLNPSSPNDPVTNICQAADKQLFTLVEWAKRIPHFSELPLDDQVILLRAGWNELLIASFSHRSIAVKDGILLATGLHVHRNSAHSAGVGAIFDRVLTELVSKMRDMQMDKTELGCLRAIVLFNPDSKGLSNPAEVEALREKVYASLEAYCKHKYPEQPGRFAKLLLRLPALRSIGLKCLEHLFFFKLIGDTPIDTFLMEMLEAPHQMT
How it was run: as §1

[3] = target: FXR:RXRa (Homo sapiens, UniProt Q96RI1;P19793 full;full); test: as above; details: tags: His kept;His cleaved; copies: 1;1; label: surface-attached array probe
FXR:RXRa, sequence (Q96RI1 whole entry, chain 1 of 2): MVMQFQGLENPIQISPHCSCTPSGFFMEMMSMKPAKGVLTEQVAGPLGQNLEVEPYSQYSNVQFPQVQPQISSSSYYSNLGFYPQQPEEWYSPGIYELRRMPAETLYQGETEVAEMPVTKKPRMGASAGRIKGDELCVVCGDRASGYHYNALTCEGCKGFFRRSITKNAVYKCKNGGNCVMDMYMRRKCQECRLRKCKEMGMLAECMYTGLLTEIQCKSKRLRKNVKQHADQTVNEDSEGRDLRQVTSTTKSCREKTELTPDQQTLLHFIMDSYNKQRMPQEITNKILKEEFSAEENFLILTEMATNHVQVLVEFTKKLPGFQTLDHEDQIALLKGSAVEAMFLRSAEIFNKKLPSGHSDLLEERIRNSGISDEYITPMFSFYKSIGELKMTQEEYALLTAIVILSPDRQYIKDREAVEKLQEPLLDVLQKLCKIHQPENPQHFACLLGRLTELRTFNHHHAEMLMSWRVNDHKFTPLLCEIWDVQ
FXR:RXRa, sequence (P19793 whole entry, chain 2 of 2): as the sequence (P19793 whole entry, chain 2 of 2) above
How it was run: as §1

[4] = target: RARb:RXRa (Homo sapiens, UniProt P10826;P19793 full;full); test: as above; details: tags: His kept;His cleaved; copies: 1;1; label: surface-attached array probe
RARb:RXRa, sequence (P10826 whole entry, chain 1 of 2): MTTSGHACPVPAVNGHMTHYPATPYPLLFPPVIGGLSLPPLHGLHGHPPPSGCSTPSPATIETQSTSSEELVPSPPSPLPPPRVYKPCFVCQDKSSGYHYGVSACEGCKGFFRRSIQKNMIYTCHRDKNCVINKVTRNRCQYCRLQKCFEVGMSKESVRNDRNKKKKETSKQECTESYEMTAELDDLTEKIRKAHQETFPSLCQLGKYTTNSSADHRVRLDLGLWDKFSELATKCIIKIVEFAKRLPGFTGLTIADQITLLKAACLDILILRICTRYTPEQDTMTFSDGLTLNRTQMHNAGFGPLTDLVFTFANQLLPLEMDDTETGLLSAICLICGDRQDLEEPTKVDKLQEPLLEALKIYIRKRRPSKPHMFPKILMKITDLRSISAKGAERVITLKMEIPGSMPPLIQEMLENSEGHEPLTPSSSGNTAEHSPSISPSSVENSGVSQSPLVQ
RARb:RXRa, sequence (P19793 whole entry, chain 2 of 2): as the sequence (P19793 whole entry, chain 2 of 2) above
How it was run: as §1

[5] = target: VDR:RXRa (Homo sapiens, UniProt P11473;P19793 full;full); test: as above; details: tags: His kept;His cleaved; copies: 1;1; label: surface-attached array probe
VDR:RXRa, sequence (P11473 whole entry, chain 1 of 2): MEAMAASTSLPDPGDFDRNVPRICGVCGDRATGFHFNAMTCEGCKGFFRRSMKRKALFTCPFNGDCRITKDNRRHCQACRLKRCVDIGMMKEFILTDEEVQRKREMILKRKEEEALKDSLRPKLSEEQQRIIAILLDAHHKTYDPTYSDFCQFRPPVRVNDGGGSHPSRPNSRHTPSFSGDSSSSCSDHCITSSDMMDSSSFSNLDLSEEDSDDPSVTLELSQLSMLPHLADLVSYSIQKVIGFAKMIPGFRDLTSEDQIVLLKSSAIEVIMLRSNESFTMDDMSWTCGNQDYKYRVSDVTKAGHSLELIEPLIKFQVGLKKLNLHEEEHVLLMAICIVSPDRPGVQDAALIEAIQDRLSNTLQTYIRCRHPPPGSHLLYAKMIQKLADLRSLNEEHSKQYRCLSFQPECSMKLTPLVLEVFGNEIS
VDR:RXRa, sequence (P19793 whole entry, chain 2 of 2): as the sequence (P19793 whole entry, chain 2 of 2) above
How it was run: as §1

[6] = target: PPARa:RXRa (Homo sapiens, UniProt Q07869;P19793 full;full); test: as above; details: tags: GST kept;His cleaved; copies: 1;1; label: surface-attached array probe
PPARa:RXRa, sequence (Q07869 whole entry, chain 1 of 2): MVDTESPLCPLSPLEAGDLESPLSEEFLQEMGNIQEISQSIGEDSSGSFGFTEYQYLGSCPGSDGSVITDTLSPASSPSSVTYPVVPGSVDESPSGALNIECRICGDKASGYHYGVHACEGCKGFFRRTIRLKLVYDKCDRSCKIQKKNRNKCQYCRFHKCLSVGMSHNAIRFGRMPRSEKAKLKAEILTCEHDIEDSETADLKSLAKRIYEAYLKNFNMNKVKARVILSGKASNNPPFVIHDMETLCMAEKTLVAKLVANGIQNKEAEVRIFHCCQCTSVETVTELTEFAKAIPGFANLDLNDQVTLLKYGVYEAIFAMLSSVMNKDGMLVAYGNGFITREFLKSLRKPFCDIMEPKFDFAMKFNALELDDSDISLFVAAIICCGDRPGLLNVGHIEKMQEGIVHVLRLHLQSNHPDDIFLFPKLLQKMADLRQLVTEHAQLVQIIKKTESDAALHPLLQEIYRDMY
PPARa:RXRa, sequence (P19793 whole entry, chain 2 of 2): as the sequence (P19793 whole entry, chain 2 of 2) above
How it was run: as §1

[7] = target: RXRa (Homo sapiens, UniProt P19793); test: no ligand; PBM; 180 nM; PBS pH 7.4, 2% milk, 0.02% Triton X-100, 1 mM DTT, BSA, 0.4 mg/ml salmon testes DNA; details: tags: His cleaved; chain copies: 2; label: surface-attached array probe
RXRa, sequence (P19793 whole entry): as the sequence (P19793 whole entry, chain 2 of 2) above

RARg:RXRa, sequence (P13631 whole entry, chain 1 of 2): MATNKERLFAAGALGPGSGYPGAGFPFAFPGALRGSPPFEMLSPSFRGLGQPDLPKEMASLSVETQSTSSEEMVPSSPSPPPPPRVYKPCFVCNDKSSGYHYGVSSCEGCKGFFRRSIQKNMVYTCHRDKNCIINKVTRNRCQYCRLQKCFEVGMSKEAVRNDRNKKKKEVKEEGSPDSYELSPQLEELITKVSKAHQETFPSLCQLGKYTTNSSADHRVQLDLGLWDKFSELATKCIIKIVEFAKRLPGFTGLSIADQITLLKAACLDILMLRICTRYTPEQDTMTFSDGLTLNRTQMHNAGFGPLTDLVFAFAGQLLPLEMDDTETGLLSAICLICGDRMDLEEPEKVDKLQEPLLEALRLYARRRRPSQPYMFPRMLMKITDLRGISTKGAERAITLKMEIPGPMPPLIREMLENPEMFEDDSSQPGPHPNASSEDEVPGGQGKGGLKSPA
RARg:RXRa, sequence (P19793 whole entry, chain 2 of 2): as the sequence (P19793 whole entry, chain 2 of 2) above

| Binder | binding signal [2] | other results |
| --- | --- | --- |
| NRC3_wobSeed89_DR3_G19A_o1 (dsDNA) DNA 1: GCCTATGTAGGTTAAGGGAGTCATTCAGTTTGAAAGGCGATTGACAGCGTAGAATGAAGG DNA 2: CCTTCATTCTACGCTGTCAATCGCCTTTCAAACTGAATGACTCCCTTAACCTACATAGGC | 0.45 PBM z-score against 500 random probes | binding signal [1]: 0.49 PBM z-score against 500 random probes; binding signal [3]: 0.48 PBM z-score against 500 random probes |
| NRC3_random_hg19_134_o1 (dsDNA) DNA 1: GCAGCTCCACTTCATGCCAGGCCTGGGCTAGAGGCTGCGATTGACAGCGTAGAATGAAGG DNA 2: CCTTCATTCTACGCTGTCAATCGCAGCCTCTAGCCCAGGCCTGGCATGAAGTGGAGCTGC | -0.78 PBM z-score against 500 random probes | binding signal [3]: -0.54 PBM z-score against 500 random probes |
| NRC3_wobSeed84_DR3_T8G_o1 (dsDNA) DNA 1: GCCCGACGGGGGCAGAAAGGTTACCATACCATCCGGGCGATTGACAGCGTAGAATGAAGG DNA 2: CCTTCATTCTACGCTGTCAATCGCCCGGATGGTATGGTAACCTTTCTGCCCCCGTCGGGC | 3.49 PBM z-score against 500 random probes | binding signal [4]: 3.11 PBM z-score against 500 random probes |
| NRC3_wobSeed85_DR3_C13A_o1 (dsDNA) DNA 1: GCCGTCCAAGGTAAGAGAGGTCAGTGAATGCCGAGTGCGATTGACAGCGTAGAATGAAGG DNA 2: CCTTCATTCTACGCTGTCAATCGCACTCGGCATTCACTGACCTCTCTTACCTTGGACGGC | 3.25 PBM z-score against 500 random probes | binding signal [4]: 3.07 PBM z-score against 500 random probes |
| NRC3_random_hg19_219_o1 (dsDNA) DNA 1: GCTATAGCTCACAACCTCATACCAGGAAGGGCTCAGGCGATTGACAGCGTAGAATGAAGG DNA 2: CCTTCATTCTACGCTGTCAATCGCCTGAGCCCTTCCTGGTATGAGGTTGTGAGCTATAGC | -0.27 PBM z-score against 500 random probes | binding signal [4]: -0.28 PBM z-score against 500 random probes |
| NRC3_wobSeed113_DR4_T13C_o1 (dsDNA) DNA 1: GCATATGTAGGTCAGCTGGGGTCATTCAGACTAGGCGCGATTGACAGCGTAGAATGAAGG DNA 2: CCTTCATTCTACGCTGTCAATCGCGCCTAGTCTGAATGACCCCAGCTGACCTACATATGC | 7.5 PBM z-score against 500 random probes | binding signal [5]: 7.24 PBM z-score against 500 random probes |
| NRC3_wobSeed109_DR4_G21T_o1 (dsDNA) DNA 1: GCCGTCCAAGGTCATAGGAGTTCAGTGAAGACAGATGCGATTGACAGCGTAGAATGAAGG DNA 2: CCTTCATTCTACGCTGTCAATCGCATCTGTCTTCACTGAACTCCTATGACCTTGGACGGC | 7.41 PBM z-score against 500 random probes | binding signal [5]: 7.28 PBM z-score against 500 random probes |
| NRC3_wobSeed37_DR1_A8G_o1 (dsDNA) DNA 1: GCCGTCCGAGGTCAAAGGTCAGTGAAGAGATGACGGGCGATTGACAGCGTAGAATGAAGG DNA 2: CCTTCATTCTACGCTGTCAATCGCCCGTCATCTCTTCACTGACCTTTGACCTCGGACGGC | 7.4 PBM z-score against 500 random probes | binding signal [5]: 7.2 PBM z-score against 500 random probes |
| NRC3_wobSeed109_DR4_G17C_o1 (dsDNA) DNA 1: GCCGTCCAAGGTCATACGAGGTCAGTGAAGACAGATGCGATTGACAGCGTAGAATGAAGG DNA 2: CCTTCATTCTACGCTGTCAATCGCATCTGTCTTCACTGACCTCGTATGACCTTGGACGGC | 7.4 PBM z-score against 500 random probes | binding signal [5]: 7.31 PBM z-score against 500 random probes |
| NRC3_wobSeed95_DR3_G22C_o1 (dsDNA) DNA 1: GCAGAACGAGGGCAATGAGTTCATAGCACGGGTGGCGCGATTGACAGCGTAGAATGAAGG DNA 2: CCTTCATTCTACGCTGTCAATCGCGCCACCCGTGCTATGAACTCATTGCCCTCGTTCTGC | 7.08 PBM z-score against 500 random probes | binding signal [5]: 8.01 PBM z-score against 500 random probes |
| NRC3_wobSeed137_DR5_C18G_o1 (dsDNA) DNA 1: GCATATGTAGGTTACATGCGGGTCATTCAGGCTATGGCGATTGACAGCGTAGAATGAAGG DNA 2: CCTTCATTCTACGCTGTCAATCGCCATAGCCTGAATGACCCGCATGTAACCTACATATGC | 3.01 PBM z-score against 500 random probes | binding signal [1]: 3.89 PBM z-score against 500 random probes |
| NRC3_wobSeed141_DR5_C6G_o1 (dsDNA) DNA 1: GCAGTGAAAGTTCAGGACGAGGTAACGTAAAGCACGGCGATTGACAGCGTAGAATGAAGG DNA 2: CCTTCATTCTACGCTGTCAATCGCCGTGCTTTACGTTACCTCGTCCTGAACTTTCACTGC | 3 PBM z-score against 500 random probes | binding signal [6]: 3.27 PBM z-score against 500 random probes |
| NRC3_random_hg19_401_o1 (dsDNA) DNA 1: GCTCTCCATCTTGAGTACCAGCCCTGTTCTTCCAGTGCGATTGACAGCGTAGAATGAAGG DNA 2: CCTTCATTCTACGCTGTCAATCGCACTGGAAGAACAGGGCTGGTACTCAAGATGGAGAGC | 0.41 PBM z-score against 500 random probes | binding signal [1]: -0.32 PBM z-score against 500 random probes |
| NRC3_random_hg19_147_o1 (dsDNA) DNA 1: GCCTCTTGCTCCCTATTGGTCTATTGCACTGCAGAGGCGATTGACAGCGTAGAATGAAGG DNA 2: CCTTCATTCTACGCTGTCAATCGCCTCTGCAGTGCAATAGACCAATAGGGAGCAAGAGGC | 0.25 PBM z-score against 500 random probes | binding signal [6]: 0.48 PBM z-score against 500 random probes |
| NRC3_random_hg19_464_o1 (dsDNA) DNA 1: GCAGAACCTCATTGCTTATCGCACAGATGAGATGCGGCGATTGACAGCGTAGAATGAAGG DNA 2: CCTTCATTCTACGCTGTCAATCGCCGCATCTCATCTGTGCGATAAGCAATGAGGTTCTGC | -0.05 PBM z-score against 500 random probes | binding signal [7]: 0.3 PBM z-score against 500 random probes; binding signal [6]: -0.25 PBM z-score against 500 random probes |
| NRC3_random_hg19_432_o1 (dsDNA) DNA 1: GCATGTCAATGGTAGTTTGATGGGAATAGTATTGAGGCGATTGACAGCGTAGAATGAAGG DNA 2: CCTTCATTCTACGCTGTCAATCGCCTCAATACTATTCCCATCAAACTACCATTGACATGC | -0.12 PBM z-score against 500 random probes | binding signal [7]: 0.02 PBM z-score against 500 random probes |
| NRC3_random_hg19_102_o1 (dsDNA) DNA 1: GCCAGATGAAATGACCAGGCTGTTACCAGGGTCTATGCGATTGACAGCGTAGAATGAAGG DNA 2: CCTTCATTCTACGCTGTCAATCGCATAGACCCTGGTAACAGCCTGGTCATTTCATCTGGC | -0.16 PBM z-score against 500 random probes | binding signal [7]: 0.48 PBM z-score against 500 random probes; binding signal [1]: 0.17 PBM z-score against 500 random probes |
| NRC3_random_hg19_215_o1 (dsDNA) DNA 1: GCTGTGGTCCCAAACACCTCAAGCATGACAATGCGTGCGATTGACAGCGTAGAATGAAGG DNA 2: CCTTCATTCTACGCTGTCAATCGCACGCATTGTCATGCTTGAGGTGTTTGGGACCACAGC | -0.46 PBM z-score against 500 random probes |  |
| NRC3_random_hg19_32_o1 (dsDNA) DNA 1: GCTGTGTCAGACAGGCAAAGCACTTAAGATTTGTGAGCGATTGACAGCGTAGAATGAAGG DNA 2: CCTTCATTCTACGCTGTCAATCGCTCACAAATCTTAAGTGCTTTGCCTGTCTGACACAGC | -0.5 PBM z-score against 500 random probes |  |
| NRC3_random_hg19_56_o1 (dsDNA) DNA 1: GCTGTGCCTTCTGCACAAGGTAGGTCTACATCCACTGCGATTGACAGCGTAGAATGAAGG DNA 2: CCTTCATTCTACGCTGTCAATCGCAGTGGATGTAGACCTACCTTGTGCAGAAGGCACAGC | -0.54 PBM z-score against 500 random probes |  |
| NRC3_random_hg19_237_o1 (dsDNA) DNA 1: GCTGCAGAGAGGCCACCAGCCAGCCCAGACCCATGCGCGATTGACAGCGTAGAATGAAGG DNA 2: CCTTCATTCTACGCTGTCAATCGCGCATGGGTCTGGGCTGGCTGGTGGCCTCTCTGCAGC | -0.57 PBM z-score against 500 random probes | binding signal [7]: 0.12 PBM z-score against 500 random probes |
| NRC3_random_hg19_342_o1 (dsDNA) DNA 1: GCATCGGGAGTGATGATAAGTAAGGCAAGCCCTGTTGCGATTGACAGCGTAGAATGAAGG DNA 2: CCTTCATTCTACGCTGTCAATCGCAACAGGGCTTGCCTTACTTATCATCACTCCCGATGC | -0.7 PBM z-score against 500 random probes |  |
| NRC3_random_hg19_344_o1 (dsDNA) DNA 1: GCCGGAAGAGAATTCTTGCCTGCCCACTGGTAGAATGCGATTGACAGCGTAGAATGAAGG DNA 2: CCTTCATTCTACGCTGTCAATCGCATTCTACCAGTGGGCAGGCAAGAATTCTCTTCCGGC | -0.71 PBM z-score against 500 random probes | binding signal [7]: -0.83 PBM z-score against 500 random probes |
| NRC3_random_hg19_9_o1 (dsDNA) DNA 1: GCAGGACTCCTCGTGAAGAGCAGGTGGGAGCGAGTCGCGATTGACAGCGTAGAATGAAGG DNA 2: CCTTCATTCTACGCTGTCAATCGCGACTCGCTCCCACCTGCTCTTCACGAGGAGTCCTGC | -0.76 PBM z-score against 500 random probes | binding signal [1]: -0.88 PBM z-score against 500 random probes |
| NRC3_random_hg19_340_o1 (dsDNA) DNA 1: GCGCCTTGTCCTTCTGCAGCTGCTGGTGCAGCCCAGGCGATTGACAGCGTAGAATGAAGG DNA 2: CCTTCATTCTACGCTGTCAATCGCCTGGGCTGCACCAGCAGCTGCAGAAGGACAAGGCGC | -0.91 PBM z-score against 500 random probes | binding signal [1]: -0.68 PBM z-score against 500 random probes |
